Measured values from the supplement of paper PMC9112550, “Optimization of the antimicrobial peptide Bac7 by deep mutational scanning” (BMC Biology, 2022).
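Note: peptides expressed intracellularly from a pBAD plasmid library in pooled LB shake-flask culture, induced with 0.3% L-arabinose, DNA abundance read by NGS, three biological replicates, DESeq2 with apeglm shrinkage.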

The sequences below were run on Escherichia coli TOP10 (assay: shrunken log2 fold change of peptide-encoding DNA abundance (4.5 h post-induction vs induction); higher = less antimicrobial activity (less host growth inhibition)). Conditions: time post-induction: 4.5 h; library: site-saturation at positions 5, 18, 19, 20.
For RRIRLRPPRLPRPRPRPWYGPRP, the “shrunken log2 fold change” value was -0.53. RRIRERPPRLPRPRPRPNHQPRP was tested, and the “shrunken log2 fold change” value was -0.259. In the case of RRIRSRPPRLPRPRPRPWFYPRP, the “shrunken log2 fold change” value is reported as -0.172. RRIRLRPPRLPRPRPRPNPTPRP was tested, and the “shrunken log2 fold change” value was -0.149. In the case of RRIRPRPPRLPRPRPRPYDGPRP, the “shrunken log2 fold change” value is reported as -0.7. RRIRWRPPRLPRPRPRPRQQPRP was tested, and the “shrunken log2 fold change” value was -0.0369. With RRIRSRPPRLPRPRPRPHGEPRP the “shrunken log2 fold change” value was -0.0153. With RRIRHRPPRLPRPRPRPITIPRP the “shrunken log2 fold change” value was -0.124. For RRIRPRPPRLPRPRPRPHVMPRP, the “shrunken log2 fold change” value was -0.0285. With RRIRPRPPRLPRPRPRPRRHPRP the “shrunken log2 fold change” value was 0.241. With RRIRGRPPRLPRPRPRPHHHPRP the “shrunken log2 fold change” value was -0.139. In the case of RRIRYRPPRLPRPRPRPMNPPRP, the “shrunken log2 fold change” value is reported as 0.02. In the case of RRIRERPPRLPRPRPRPMIMPRP, the “shrunken log2 fold change” value is reported as -0.00163. With RRIRIRPPRLPRPRPRPSDYPRP the “shrunken log2 fold change” value was -0.385. In the case of RRIRQRPPRLPRPRPRPHTAPRP, the “shrunken log2 fold change” value is reported as -0.926. In the case of RRIRRRPPRLPRPRPRPQTTPRP, the “shrunken log2 fold change” value is reported as 0.137. For RRIRPRPPRLPRPRPRPENIPRP, the “shrunken log2 fold change” value was -0.102. With RRIRPRPPRLPRPRPRPCSQPRP the “shrunken log2 fold change” value was -0.257. With RRIRWRPPRLPRPRPRPDDYPRP the “shrunken log2 fold change” value was 0.0299. For RRIRTRPPRLPRPRPRPHRIPRP, the “shrunken log2 fold change” value was -0.052. For RRIRLRPPRLPRPRPRPSCIPRP, the “shrunken log2 fold change” value was -0.461. In the case of RRIRNRPPRLPRPRPRPFMKPRP, the “shrunken log2 fold change” value is reported as -0.0163. For RRIRYRPPRLPRPRPRPSMVPRP, the “shrunken log2 fold change” value was -0.858. RRIRPRPPRLPRPRPRPRRCPRP was tested, and the “shrunken log2 fold change” value was 0.388. For RRIRNRPPRLPRPRPRPLDSPRP, the “shrunken log2 fold change” value was -0.125. RRIRMRPPRLPRPRPRPSDDPRP was tested, and the “shrunken log2 fold change” value was 1.89. For RRIRIRPPRLPRPRPRPEYYPRP, the “shrunken log2 fold change” value was -0.198. In the case of RRIRIRPPRLPRPRPRPVYWPRP, the “shrunken log2 fold change” value is reported as -0.208. For RRIRCRPPRLPRPRPRPMHFPRP, the “shrunken log2 fold change” value was 0.102. With RRIRCRPPRLPRPRPRPPIMPRP the “shrunken log2 fold change” value was -0.0556. With RRIRARPPRLPRPRPRPHDWPRP the “shrunken log2 fold change” value was 0.295. RRIRLRPPRLPRPRPRPKNGPRP was tested, and the “shrunken log2 fold change” value was -0.203. In the case of RRIRPRPPRLPRPRPRPKYWPRP, the “shrunken log2 fold change” value is reported as -0.127. For RRIRMRPPRLPRPRPRPPTTPRP, the “shrunken log2 fold change” value was 0.991. With RRIRWRPPRLPRPRPRPEHHPRP the “shrunken log2 fold change” value was -0.0625. With RRIRIRPPRLPRPRPRPYLFPRP the “shrunken log2 fold change” value was -0.376. In the case of RRIRVRPPRLPRPRPRPQISPRP, the “shrunken log2 fold change” value is reported as -0.0989. In the case of RRIRTRPPRLPRPRPRPIAHPRP, the “shrunken log2 fold change” value is reported as 0.00363. With RRIRCRPPRLPRPRPRPSPNPRP the “shrunken log2 fold change” value was -0.102. With RRIRFRPPRLPRPRPRPYLCPRP the “shrunken log2 fold change” value was -0.477. With RRIRARPPRLPRPRPRPVFDPRP the “shrunken log2 fold change” value was 0.321. For RRIRNRPPRLPRPRPRPIFYPRP, the “shrunken log2 fold change” value was 0.00954. For RRIRHRPPRLPRPRPRPWSDPRP, the “shrunken log2 fold change” value was -0.138. RRIRERPPRLPRPRPRPNATPRP was tested, and the “shrunken log2 fold change” value was 0.287. In the case of RRIRMRPPRLPRPRPRPYDSPRP, the “shrunken log2 fold change” value is reported as 0.00275. For RRIRHRPPRLPRPRPRPGRYPRP, the “shrunken log2 fold change” value was -0.017. RRIRVRPPRLPRPRPRPKECPRP was tested, and the “shrunken log2 fold change” value was -0.0265. RRIRSRPPRLPRPRPRPEYAPRP was tested, and the “shrunken log2 fold change” value was 0.496. For RRIRIRPPRLPRPRPRPCGDPRP, the “shrunken log2 fold change” value was -0.0271. For RRIRIRPPRLPRPRPRPCYRPRP, the “shrunken log2 fold change” value was -0.44. In the case of RRIRGRPPRLPRPRPRPIDAPRP, the “shrunken log2 fold change” value is reported as 0.674. With RRIRNRPPRLPRPRPRPVMCPRP the “shrunken log2 fold change” value was -0.0207. With RRIRHRPPRLPRPRPRPRCVPRP the “shrunken log2 fold change” value was 0.548. RRIRGRPPRLPRPRPRPEYYPRP was tested, and the “shrunken log2 fold change” value was 0.166. With RRIRERPPRLPRPRPRPSRQPRP the “shrunken log2 fold change” value was -0.214. In the case of RRIRWRPPRLPRPRPRPKEAPRP, the “shrunken log2 fold change” value is reported as 0.111. With RRIRVRPPRLPRPRPRPGDTPRP the “shrunken log2 fold change” value was -0.0412. In the case of RRIRFRPPRLPRPRPRPHPWPRP, the “shrunken log2 fold change” value is reported as -0.212. In the case of RRIRKRPPRLPRPRPRPLPKPRP, the “shrunken log2 fold change” value is reported as 0.54. RRIRTRPPRLPRPRPRPRKSPRP was tested, and the “shrunken log2 fold change” value was -0.0508. For RRIRPRPPRLPRPRPRPIKHPRP, the “shrunken log2 fold change” value was -0.31. RRIRIRPPRLPRPRPRPMWRPRP was tested, and the “shrunken log2 fold change” value was 0.19. In the case of RRIRLRPPRLPRPRPRPDSCPRP, the “shrunken log2 fold change” value is reported as -0.851. With RRIRNRPPRLPRPRPRPMHHPRP the “shrunken log2 fold change” value was -0.653. With RRIRVRPPRLPRPRPRPGLMPRP the “shrunken log2 fold change” value was 0.0219. In the case of RRIRTRPPRLPRPRPRPWVEPRP, the “shrunken log2 fold change” value is reported as -0.297. In the case of RRIRWRPPRLPRPRPRPAMVPRP, the “shrunken log2 fold change” value is reported as 0.483. RRIRYRPPRLPRPRPRPQDPPRP was tested, and the “shrunken log2 fold change” value was -0.0639. With RRIRSRPPRLPRPRPRPHLMPRP the “shrunken log2 fold change” value was -0.0307. RRIRMRPPRLPRPRPRPALIPRP was tested, and the “shrunken log2 fold change” value was 0.136. With RRIRMRPPRLPRPRPRPKIHPRP the “shrunken log2 fold change” value was -0.0387. With RRIRFRPPRLPRPRPRPKDAPRP the “shrunken log2 fold change” value was 0.141. With RRIRIRPPRLPRPRPRPVSMPRP the “shrunken log2 fold change” value was 0.0888. RRIRPRPPRLPRPRPRPSDMPRP was tested, and the “shrunken log2 fold change” value was -0.273. With RRIRHRPPRLPRPRPRPEWGPRP the “shrunken log2 fold change” value was 0.209.
